Target: full-length c-Jun (Rattus norvegicus (Rat)) (UniProt P17325)
Assay: cell-based or functional assay

wild-type Stat3 (transfected, expression vector pRcCMV) (from UniProt P42227 1-770)
IL-6 dependent response of the α2-macroglobulin luciferase reporter gene in HepG2 cells (fold): 30 fold
IL-6 response of the α2-macroglobulin luciferase reporter gene in HepG2 cells with increasing Stat3 and extra c-Jun (fold above background): 4
